This is an account of results in patent US20260097113A1 (Pfizer, published 2026).

Assay [1] concerns the target RSV A + RSV B bivalent composition (RSV subtype A; RSV subtype B). Briefly: AM14 Fab titration by SEC; High-Slow 2 cycle; 1 M 2-8°C (second value). (SEC sorts molecules by how far they enter the pores of the column.)
For assay [2] the target is unchanged. Briefly: AM14 Fab titration by SEC; composition of Table 14; Annealing Temp Aggressive cycle.
The target is the same in assay [3]. Briefly: AM14 Fab titration by SEC; High-Slow 1 cycle; T0.
Assay [4] has the same target. As to the kind of experiment: AM14 Fab titration by SEC; High-Slow 2 cycle; 1 M 40°C (second value).
For assay [5] the target is unchanged. Briefly: AM14 Fab titration by SEC; Target cycle; 8 M 2-8°C.
Assay [6] has the same target. Briefly: AM14 Fab titration by SEC; High-Slow 2 cycle; 3 M 2-8°C.
In assay [7] the target is T1, RSV F protein of subtype A comprising a polypeptide of SEQ ID NO: 1 and a polypeptide of SEQ ID NO: 2 (RSV subtype A, UniProt P11209 137-513; P03420 26-109).
T1 construct: Stabilized prefusion F trimer made of three F2-F1 heterodimers; Produced recombinantly in CHO cells; also called RSV A; RSVA
T1 chain 1: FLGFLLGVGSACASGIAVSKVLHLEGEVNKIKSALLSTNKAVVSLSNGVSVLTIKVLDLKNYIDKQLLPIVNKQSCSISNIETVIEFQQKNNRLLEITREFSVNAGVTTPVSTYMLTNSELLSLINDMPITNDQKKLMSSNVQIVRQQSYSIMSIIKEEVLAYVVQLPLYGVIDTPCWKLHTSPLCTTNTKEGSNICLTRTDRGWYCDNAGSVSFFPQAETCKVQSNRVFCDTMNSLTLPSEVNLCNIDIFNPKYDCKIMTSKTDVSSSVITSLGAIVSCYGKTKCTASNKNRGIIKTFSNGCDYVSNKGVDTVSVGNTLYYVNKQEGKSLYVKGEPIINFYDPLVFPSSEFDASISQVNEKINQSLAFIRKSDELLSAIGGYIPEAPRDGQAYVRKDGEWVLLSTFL
T1 chain 2: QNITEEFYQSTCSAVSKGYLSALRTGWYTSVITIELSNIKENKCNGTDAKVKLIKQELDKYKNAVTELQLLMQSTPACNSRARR
As to the kind of experiment: AM14 ELISA; F8 (pH 7, 50 mM NaCl, 0% sucrose); 2 wk 5°C. (In general: ELISA stands for enzyme-linked immunosorbent assay.)

In assay [8] the target is T1, RSV F protein of subtype A comprising a …. Briefly: AM14 ELISA; F19 (pH 7, 50 mM NaCl, 3% trehalose + 3% mannitol); 1 wk 5°C.
Assay [9] shares this target. As to the kind of experiment: AM14 ELISA; F3 (pH 8, 0 mM NaCl, 9% sucrose); 1 wk 25°C.
Assay [10] shares this target. Briefly: AM14 ELISA; F12 (pH 8, 100 mM NaCl, 9.0% sucrose); 2 wk 5°C.
Assay [11] has the same target. Briefly: AM14 ELISA; F2 (pH 8, 0 mM NaCl, 0% sucrose); 2 wk 5°C.
The target is the same in assay [12]. Briefly: AM14 ELISA; F5 (pH 6, 100 mM NaCl, 9.0% sucrose); T0.
Assay [13] concerns the target T2, RSV F protein comprising a polypeptide of SEQ ID NO: 3 and a polypeptide of SEQ ID NO: 4 (RSV subtype B, UniProt O36634 137-513; O36634 26-109).
T2 construct: also called RSV B; RSVB
T2 chain 1: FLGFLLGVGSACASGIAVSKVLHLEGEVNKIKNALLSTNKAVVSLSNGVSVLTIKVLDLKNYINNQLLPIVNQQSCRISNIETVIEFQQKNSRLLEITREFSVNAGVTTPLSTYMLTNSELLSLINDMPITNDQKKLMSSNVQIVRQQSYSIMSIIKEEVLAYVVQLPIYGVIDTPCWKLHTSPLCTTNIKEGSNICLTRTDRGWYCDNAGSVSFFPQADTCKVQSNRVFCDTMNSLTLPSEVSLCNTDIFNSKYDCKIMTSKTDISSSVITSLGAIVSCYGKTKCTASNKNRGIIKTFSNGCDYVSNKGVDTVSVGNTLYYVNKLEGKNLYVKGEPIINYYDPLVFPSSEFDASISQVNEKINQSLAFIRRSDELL
T2 chain 2: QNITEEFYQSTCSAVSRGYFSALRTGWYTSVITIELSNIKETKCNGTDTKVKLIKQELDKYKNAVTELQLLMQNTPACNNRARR
Briefly: AM14 prefusion assay relative to standard; RSV B 480 µg/mL, 2% sucrose + 4% mannitol; post-lyo 2 months at 5°C.

The target of assay [14] is T1, RSV F protein of subtype A comprising a …. As to the kind of experiment: AM14 ELISA; F7 (pH 6, 100 mM NaCl, 0% sucrose); 1 wk 25°C.
Assay [15] has the same target. As to the kind of experiment: AM14 ELISA; F17 (pH 7, 50 mM NaCl, 4.5% trehalose); T0.

As for AM14 Fab, the Prefusion Content (%) in assay [1] was found to be 65%; in assay [2], 70%; in assay [3], 64%; in assay [4], 68%; in assay [5] it was 73%; in assay [6], 62%.

B1: AM14 (trimeric prefusion specific antibody of the AM14 ELISA) (antibody, V domains shown)
VH: EVQLVESGGGVVQPGRSLRLSCAASGFSFSHYAMHWVRQAPGKGLEWVAVISYDGENTYYADSVKGRFSISRDNSKNTVSLQMNSLRPEDTALYYCARDRIVDDYYYYGMDVWGQGATVTVSS
VL: DIQMTQSPSSLSASVGDRVTITCQASQDIKKYLNWYHQKPGKVPELLMHDASNLETGVPSRFSGRGSGTDFTLTISSLQPEDIGTYYCQQYDNLPPLTFGGGTKVEIKR
notes: Antibody as used in the AM14 ELISA, detected with an HRP-labeled secondary antibody
Consider B1, for which the “AM14 prefusion content (%), relative to standard” value in assay [7] amounted to 101%; in assay [8], 74%; in [9], 81%; in assay [10] it was 72%; in assay [11] it was 75%; in [12], 91%. In addition, the “AM14 prefusion content (%), relative to standard” value was found to be 101% in assay [13], 75% in [14] and 86% in [15].
